pKd: −log10 of the molar value.
Key:
[1] = target: soluble biotinylated cognate peptide-MHC of the DMF5 TCR; assay: BLI; Octet RED96; biotinylated pMHC (5 µg/mL) loaded on streptavidin tips; TCR in twofold serial dilutions from 200 nM, 900 s association, 600 s dissociation; PBS with kinetic buffer; 1:1 binding model
[2] = target: soluble biotinylated cognate peptide-MHC of the A6 TCR; assay: as above

Row | pKd [1] | koff [1] [s⁻¹] | pKd [2] | koff [2] [s⁻¹] | Substance
1 | 7.50 | 7.4e-05 | – | – | wild-type DMF5 TCR (soluble α/β heterodimer)
2 | – | – | 8.08 | 0.000416 | wild-type high-affinity A6 TCR (soluble α/β heterodimer)
